± gives the uncertainty stated by the source.
Test: self-splicing fitness, log relative to wild type (ln ratio); higher = more splicing; Tetrahymena group I intron in knt gene, E. coli kanamycin selection, DiMSum; sequences stand for … in CUCUCU…GGAGGGAAAAGUUAUCAGGCAUGCACCUGGUAGCUAGUCUUUAAACCAAUAGAUUGCAUCGGUUUAAAAGGCAAGACCGUCAAAUUGCGGGAAAGGGGUCAACAGCCGUUCAGUACCAAGUCUCAGGGGAAACUUUGAGAUGGCCUUGCAAAGGGUAUGGUAAUAAGCUGACGGACAUGGUCCUAACCACGCAGCCAAGUCCUAAGUCAACAGAUCUUCUGUUGAUAUGGAUGCAGUUCACAGACUAAAUGUCGGUCGGGGAAGAUGUAUUCUUCUCAUAAGAUAUAGUCGGACCUCUCCUUAAUGGGAGCUAGCGGAUGAAGUGAUGCAACACUGGAGCCGCUGGGAACUAAUUUGUAUGCGAAAGUAUAUUGAUUAGUUUUGGAGUACUCGUGGUCG
How it was run: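 Fitness was computed with DiMSum as the error-weighted combination of replicate fold changes, kanamycin versus none, each normalised to wild type. The library randomised all eight intron nucleotides of the P1ex region, with the intron placed in the knt kanamycin-resistance gene on pET-22b(+) in E. coli BL21(DE3). Six replicate transformations were grown overnight at 37°C or 30°C on LB agar with or without 25 μg/mL kanamycin, plus 100 μg/mL carbenicillin, 50 μM IPTG and 0.2% rhamnose. Pooled colonies were amplicon-sequenced on an Illumina HiSeq 2500.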

Row | Sequence | self-splicing fitness (ln) (30 °C) | self-splicing fitness (ln) (37 °C)
1 | CCCUAGCAAUAUUACGUCGA | -3.58 ± 0.21 | -2.51 ± 0.19
2 | CCACAGCAAUAUUACGUUUU | -3.73 ± 0.16 | -3.7 ± 0.22
3 | GAGGAGCAAUAUUACGAAAU | -3 ± 0.4 | -1.14 ± 0.23
4 | UUGGAGCAAUAUUACGGUAU | -2.95 ± 0.26 | -1.98 ± 0.28
5 | CGUCAGCAAUAUUACGGAAC | -2.22 ± 0.27 | -2.61 ± 0.25
6 | GGUAAGCAAUAUUACGUCAG | -3.79 ± 0.34 | -2.52 ± 0.39
7 | AAAGAGCAAUAUUACGUUUC | -3.41 ± 0.18 | -2.55 ± 0.24
8 | AUGCAGCAAUAUUACGUGCA | -2.07 ± 0.1 | -0.922 ± 0.1
9 | ACAGAGCAAUAUUACGACUG | -1.05 ± 0.11 | -1.54 ± 0.15
10 | GAGAAGCAAUAUUACGGUGG | -2.14 ± 0.14 | -2.93 ± 0.25
11 | UGAUAGCAAUAUUACGAAAG | -3 ± 0.14 | -1.67 ± 0.15
12 | ACACAGCAAUAUUACGUAAU | -2.76 ± 0.085 | -1.73 ± 0.12
13 | GGUAAGCAAUAUUACGCCUA | -0.917 ± 0.088 | -0.737 ± 0.091
14 | GAGCAGCAAUAUUACGCUUA | -0.991 ± 0.077 | -0.238 ± 0.11
15 | AAUAAGCAAUAUUACGGCCG | -0.879 ± 0.12 | 0.196 ± 0.2
16 | GGCCAGCAAUAUUACGCUCC | -3.17 ± 0.24 | -1.38 ± 0.24
17 | CUAUAGCAAUAUUACGGCUG | -1.02 ± 0.12 | -0.165 ± 0.15
18 | CCGGAGCAAUAUUACGGUUU | -3.33 ± 0.25 | -2.55 ± 0.18
19 | AGGGAGCAAUAUUACGCGGG | -1.93 ± 0.2 | –
20 | AUAGAGCAAUAUUACGUCAU | -0.913 ± 0.087 | 0.145 ± 0.1
21 | GUGCAGCAAUAUUACGUAAA | -0.491 ± 0.084 | -1.05 ± 0.11
22 | UAUUAGCAAUAUUACGAGGC | – | -0.205 ± 0.23
23 | AUCAAGCAAUAUUACGCGUA | -1.02 ± 0.086 | -0.375 ± 0.08
24 | CUCAAGCAAUAUUACGAGUA | -3.49 ± 0.28 | -2.41 ± 0.23

Row | Sequence | self-splicing fitness (ln) (30 °C) | self-splicing fitness (ln) (37 °C)
25 | GAGUAGCAAUAUUACGUAAU | -2.16 ± 0.13 | -2.38 ± 0.16
26 | UUUAAGCAAUAUUACGGUUG | -2.33 ± 0.13 | -1.76 ± 0.14
27 | CAUGAGCAAUAUUACGUUAU | -3.12 ± 0.14 | -2.54 ± 0.24
28 | ACUUAGCAAUAUUACGCGCC | -1.35 ± 0.18 | -0.348 ± 0.19
29 | AUGGAGCAAUAUUACGGAGU | – | -2.34 ± 0.27
30 | CCUAAGCAAUAUUACGAUGA | -3.09 ± 0.21 | -1.84 ± 0.18
31 | UAUUAGCAAUAUUACGUUUG | -2.12 ± 0.12 | -0.749 ± 0.13
32 | GGAGAGCAAUAUUACGGCGA | -2.22 ± 0.27 | -1.69 ± 0.28
33 | UCCAAGCAAUAUUACGUCAG | -3.02 ± 0.15 | -1.69 ± 0.13
34 | UACGAGCAAUAUUACGUGUC | -3.32 ± 0.17 | -2.83 ± 0.28
35 | UUGCAGCAAUAUUACGAACG | -0.781 ± 0.19 | -0.482 ± 0.2
36 | UUUGAGCAAUAUUACGGGUG | -4.1 ± 0.3 | -2.22 ± 0.21
37 | AAACAGCAAUAUUACGGCUC | -0.311 ± 0.068 | 0.201 ± 0.095
38 | AUCCAGCAAUAUUACGUGUC | -3.34 ± 0.16 | -2.24 ± 0.14
39 | GCUUAGCAAUAUUACGGUGU | -0.596 ± 0.052 | -0.0556 ± 0.068
40 | CGAUAGCAAUAUUACGCGUC | – | -1.76 ± 0.47
41 | UCUGAGCAAUAUUACGAGAU | -3.79 ± 0.37 | -2.48 ± 0.3
42 | ACUUAGCAAUAUUACGGUUG | -3.15 ± 0.17 | -1.43 ± 0.15
43 | GCGCAGCAAUAUUACGUCCG | -2.27 ± 0.11 | -0.478 ± 0.14
44 | AGUGAGCAAUAUUACGUAAG | -3.1 ± 0.43 | -2.48 ± 0.41
45 | AGUUAGCAAUAUUACGUAGU | -2.77 ± 0.17 | -1.94 ± 0.17
46 | GGAAAGCAAUAUUACGCUGG | -2.2 ± 0.14 | -2.81 ± 0.26
47 | GAGCAGCAAUAUUACGUGGC | -3.71 ± 0.27 | -1.63 ± 0.14
48 | CACAAGCAAUAUUACGUGGC | -3.15 ± 0.21 | -2.64 ± 0.27

Row | Sequence | self-splicing fitness (ln) (30 °C) | self-splicing fitness (ln) (37 °C)
49 | GACGAGCAAUAUUACGCAUG | -3.07 ± 0.25 | -1.61 ± 0.19
50 | AUGUAGCAAUAUUACGCCAU | -2.41 ± 0.19 | -2.18 ± 0.24
51 | GAGCAGCAAUAUUACGGUUC | -3.92 ± 0.42 | -1.9 ± 0.38
52 | GUCGAGCAAUAUUACGAUCA | -1 ± 0.19 | -0.515 ± 0.21
53 | AAUAAGCAAUAUUACGGGGC | -3.29 ± 0.26 | -2.91 ± 0.37
54 | UUAUAGCAAUAUUACGAUAG | -0.194 ± 0.16 | -0.527 ± 0.16
55 | AACAAGCAAUAUUACGUAAA | -2.36 ± 0.09 | -1.17 ± 0.098
56 | ACAGAGCAAUAUUACGUGAG | -2.08 ± 0.11 | -1.55 ± 0.1
57 | AUCUAGCAAUAUUACGAGAG | -1.88 ± 0.11 | -0.329 ± 0.1
58 | GACGAGCAAUAUUACGGGCG | -3.8 ± 0.27 | -1.08 ± 0.17
59 | UCCCAGCAAUAUUACGUAGG | -4.06 ± 0.17 | -1.08 ± 0.11
60 | CACGAGCAAUAUUACGAGCA | -4.24 ± 0.39 | -3.46 ± 0.4
61 | AUGCAGCAAUAUUACGGUGU | -3.52 ± 0.16 | -1.63 ± 0.14
62 | GCUCAGCAAUAUUACGGCGG | -3.09 ± 0.29 | -1.46 ± 0.29
63 | CCCGAGCAAUAUUACGGCUA | -3.46 ± 0.29 | -3.2 ± 0.32
64 | CCCGAGCAAUAUUACGCAGG | -1.97 ± 0.2 | -1.36 ± 0.22
65 | GGGGAGCAAUAUUACGUAAA | -3.12 ± 0.36 | -1.18 ± 0.3
66 | UACCAGCAAUAUUACGUCUC | -2.4 ± 0.14 | -2.26 ± 0.18
67 | AGGAAGCAAUAUUACGUGUG | -2.29 ± 0.077 | -1.85 ± 0.095
68 | GGUAAGCAAUAUUACGGAGU | -3.39 ± 0.22 | -1.73 ± 0.18
69 | CUGCAGCAAUAUUACGCCUU | -2.87 ± 0.15 | -2.94 ± 0.29
70 | CCAGAGCAAUAUUACGAUCG | -0.986 ± 0.11 | -0.589 ± 0.14
71 | UUACAGCAAUAUUACGUCCA | -0.325 ± 0.096 | -0.181 ± 0.11
72 | CAGUAGCAAUAUUACGGCGU | -2.25 ± 0.12 | -0.753 ± 0.14

Row | Sequence | self-splicing fitness (ln) (30 °C) | self-splicing fitness (ln) (37 °C)
73 | AAAAAGCAAUAUUACGGUUG | -2.28 ± 0.1 | -1.58 ± 0.13
74 | GCUCAGCAAUAUUACGUCCG | -1.49 ± 0.14 | -1.13 ± 0.18
75 | GCAGAGCAAUAUUACGUGCC | -3.66 ± 0.3 | -2.94 ± 0.3
76 | GGCAAGCAAUAUUACGAGGU | -2.6 ± 0.24 | -1.27 ± 0.21
77 | AUCAAGCAAUAUUACGGCAU | -0.523 ± 0.067 | 0.787 ± 0.088
78 | GCUCAGCAAUAUUACGGAUG | -1.76 ± 0.094 | -1.12 ± 0.12
79 | UGAGAGCAAUAUUACGGUGA | -2.54 ± 0.36 | -2.73 ± 0.44
80 | UGAGAGCAAUAUUACGCGCC | -1.44 ± 0.33 | -1.09 ± 0.47
81 | UCCAAGCAAUAUUACGACCG | – | -1.38 ± 0.41
82 | UCUAAGCAAUAUUACGCGUC | -3.36 ± 0.24 | -2.01 ± 0.18
83 | CACCAGCAAUAUUACGACCG | -0.000395 ± 0.066 | 0.12 ± 0.089
84 | CAGGAGCAAUAUUACGCAGU | -2 ± 0.31 | -1.44 ± 0.29
85 | AAUAAGCAAUAUUACGUUUC | -4.09 ± 0.28 | -2.46 ± 0.24
86 | CACGAGCAAUAUUACGGUAC | -2.69 ± 0.21 | -2.81 ± 0.3
87 | AAUGAGCAAUAUUACGUGAC | -3.08 ± 0.37 | -1.25 ± 0.19
88 | UAGAAGCAAUAUUACGUGCG | -0.462 ± 0.082 | -0.125 ± 0.098
89 | ACGUAGCAAUAUUACGGUAA | -1.67 ± 0.2 | -1.39 ± 0.14
90 | UUCCAGCAAUAUUACGUAAG | -1.42 ± 0.066 | -0.28 ± 0.095
91 | GUAAAGCAAUAUUACGGAGU | -3.08 ± 0.26 | -2.81 ± 0.29
92 | GUGAAGCAAUAUUACGGCAA | 0.587 ± 0.084 | 0.552 ± 0.11
93 | CCAGAGCAAUAUUACGGCCG | -1.72 ± 0.16 | -0.276 ± 0.31
94 | CUACAGCAAUAUUACGACAA | -2.42 ± 0.2 | -2.19 ± 0.21
95 | CGCUAGCAAUAUUACGCCAC | -3.86 ± 0.43 | -1.09 ± 0.26
96 | ACCAAGCAAUAUUACGCCCG | -1.42 ± 0.14 | 0.129 ± 0.15

Source: the supplement of paper PMC7877785
